In publication PMC13202173, “Polyphosphate as a novel regulator of super-enhancer complexes: disruption of phase separation and gene expression”:

Target: MBP-mCherry-YY1 (Homo sapiens, UniProt P25490 1-414)
Test: EMSA; 10 uM Zn2+, 100 mM KCl, no polyP; 2 uM protein, 25 nM probe; Motif EMSA: 10 mM Tris pH 7.5, 50 mM KCl, DTT, Tween 20, 5 mM MgCl2, ~25 nM probe, room temperature 30 min; G4 EMSA: 10 mM Tris-HCl pH 7.5, 100 mM KCl, 10 uM Zn, 1 mM DTT, 3% glycerol, room temperature 30 min; anisotropy: same without glycerol, on ice 30 min
Details: protein: recombinant; tags: N-MBP-TEV, C-mCherry; label: 5' IRDye 700 on strand 1; G4 as stated by authors, annealed with S4 in 100 mM KCl; S3/S4 otherwise pair with mismatches

MBP-mCherry-YY1, sequence (P25490 whole entry): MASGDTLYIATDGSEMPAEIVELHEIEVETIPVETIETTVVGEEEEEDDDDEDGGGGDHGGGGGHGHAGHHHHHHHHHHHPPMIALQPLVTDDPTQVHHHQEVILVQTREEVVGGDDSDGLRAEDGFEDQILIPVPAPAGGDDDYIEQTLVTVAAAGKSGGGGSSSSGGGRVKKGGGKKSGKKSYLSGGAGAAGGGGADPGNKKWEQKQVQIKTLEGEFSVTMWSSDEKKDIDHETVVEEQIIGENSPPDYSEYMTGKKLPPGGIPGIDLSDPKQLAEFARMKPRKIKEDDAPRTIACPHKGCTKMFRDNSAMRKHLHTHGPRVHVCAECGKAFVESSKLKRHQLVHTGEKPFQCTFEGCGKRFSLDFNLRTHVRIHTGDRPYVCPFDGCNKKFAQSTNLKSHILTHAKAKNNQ

B1: human telomere G4 (hTEL) probe (structured_DNA)
DNA 1: AAAGGGTTAGTGTTAGTGTTAGGGAA
DNA 2: TTCCCTAACCCTAACCCTAACCCTTT
binding result: binds
